Where a chain is given by its changes, count along the chain named.
How the values were obtained:
Experiment in all cases: cell_activity; CHO iGFFP reporter
LOX 3-4m.2229 = biological target: T1, LOX 3-4m.2229 (artificial (I-CreI derived))
T1 chain: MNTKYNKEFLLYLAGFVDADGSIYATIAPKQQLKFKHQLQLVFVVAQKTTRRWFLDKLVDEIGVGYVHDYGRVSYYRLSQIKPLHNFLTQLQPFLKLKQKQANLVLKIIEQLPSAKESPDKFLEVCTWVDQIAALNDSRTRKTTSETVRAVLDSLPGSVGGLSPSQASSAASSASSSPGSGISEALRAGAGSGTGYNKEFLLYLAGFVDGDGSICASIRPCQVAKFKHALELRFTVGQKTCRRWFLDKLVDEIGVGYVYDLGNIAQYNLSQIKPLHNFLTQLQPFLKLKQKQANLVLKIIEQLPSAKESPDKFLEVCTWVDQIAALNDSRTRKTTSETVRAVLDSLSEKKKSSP
Text: (§1) A CHO cell reporter system (see WO/2012/167192, FIG. 3) was used to determine whether the engineered meganucleases generated in these studies could recognize and cleave the modified LOX 3-4 recognition sequences in Table 87. To perform the assay, a pair of CHO cell reporter lines were produced, which carried a non-functional Green Fluorescent Protein (GFP) gene expression cassette integrated into the genome of the cell. The GFP gene in each cell line was interrupted by a pair of recognition sequences such that intracellular cleavage of either recognition sequence by a meganuclease would stimulate a homologous recombination event resulting in a functional GFP gene. In both cell lines, one of the recognition sequences was derived from the LOX 3-4 recognition sequence (i.e., those sequences disclosed in Table 87), and the second recognition sequence was specifically recognized by a control meganuclease called “CHO 23/24.” CHO reporter cells comprising a recognition sequence derived from the LOX 3-4 recognition sequence and the CHO 23/24 recognition sequence are referred to herein as “test cells.”
(§2) Novel engineered meganucleases derived from the LOX 3-4x.109 meganuclease were prepared by making amino acid substitutions at one or more positions in the first subunit and one or more positions in the second subunit. These engineered meganucleases were then evaluated for cleavage of the LOX 3-4 recognition sequence modified to have a TCAA center sequence (SEQ ID NO: 331) in the CHO reporter assay according to Example 1.

LOX 3-4m.2157 = biological target: T2, LOX 3-4m.2157 (artificial (I-CreI derived))
T2 chain: T1 chain with A19S, K48S, T50R, R72S, Q80E, R139K, K239S, C241K, N263R
Text: as §1, §2

LOX 3-4m.2165 = biological target: T3, LOX 3-4m.2165 (artificial (I-CreI derived))
T3 chain: T1 chain with A19S, K48S, T50R, G71R, R72S, Q80E, R139K, K239S, C241R, N263Q
Text: as §1, §2

LOX 3-4m.2189 = biological target: T4, LOX 3-4m.2189 (artificial (I-CreI derived))
T4 chain: T1 chain with T50R, R72S, Q80E, R139K, N263R, Q271E
Text: as §1, §2

LOX 3-4m.2151 = biological target: T5, LOX 3-4m.2151 (artificial (I-CreI derived))
T5 chain: T1 chain with A19G, T50S, R72S, G210A, K239T, C241K, N263R, I264V
Text: as §1
as §2, with “TTAA” for “TCAA”, “341)” for “331)”, “1. The substitutions in each subunit are provided in Tables 174 and 175, respectively.” for “1.”

LOX 3-4m.2142 = biological target: T6, LOX 3-4m.2142 (artificial (I-CreI derived))
T6 chain: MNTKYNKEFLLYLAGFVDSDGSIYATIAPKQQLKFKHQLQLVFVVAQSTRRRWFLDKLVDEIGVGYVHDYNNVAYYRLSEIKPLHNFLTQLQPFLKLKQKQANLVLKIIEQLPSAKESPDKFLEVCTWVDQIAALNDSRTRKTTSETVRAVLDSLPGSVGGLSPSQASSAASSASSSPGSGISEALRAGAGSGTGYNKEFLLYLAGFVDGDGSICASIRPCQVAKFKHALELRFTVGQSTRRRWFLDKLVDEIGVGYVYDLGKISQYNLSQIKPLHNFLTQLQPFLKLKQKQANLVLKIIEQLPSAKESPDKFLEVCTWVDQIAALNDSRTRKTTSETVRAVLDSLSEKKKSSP
Text: as §1
as §2, with “TTAA” for “TCAA”, “341)” for “331)”, “1. The substitutions in each subunit are provided in Tables 174 and 175, respectively.” for “1.”

LOX 3-4m.2145 = biological target: T7, LOX 3-4m.2145 (artificial (I-CreI derived))
T7 chain: T1 chain with A19G, K48N, T50R, R72T, G210A, N263K, A265S
Text: as §1
as §2, with “TTAA” for “TCAA”, “341)” for “331)”, “1. The substitutions in each subunit are provided in Tables 174 and 175, respectively.” for “1.”

LOX 3-4m.2125 = biological target: T8, LOX 3-4m.2125 (artificial (I-CreI derived))
T8 chain: T6 chain with S19G, S48K, N71A, N72Q, G210A, R241K, K263R
Text: as §1
as §2, with “TTAA” for “TCAA”, “341)” for “331)”, “1. The substitutions in each subunit are provided in Tables 174 and 175, respectively.” for “1.”

LOX 3-4m.1973 = biological target: T9, LOX 3-4m.1973 (artificial (I-CreI derived))
T9 chain: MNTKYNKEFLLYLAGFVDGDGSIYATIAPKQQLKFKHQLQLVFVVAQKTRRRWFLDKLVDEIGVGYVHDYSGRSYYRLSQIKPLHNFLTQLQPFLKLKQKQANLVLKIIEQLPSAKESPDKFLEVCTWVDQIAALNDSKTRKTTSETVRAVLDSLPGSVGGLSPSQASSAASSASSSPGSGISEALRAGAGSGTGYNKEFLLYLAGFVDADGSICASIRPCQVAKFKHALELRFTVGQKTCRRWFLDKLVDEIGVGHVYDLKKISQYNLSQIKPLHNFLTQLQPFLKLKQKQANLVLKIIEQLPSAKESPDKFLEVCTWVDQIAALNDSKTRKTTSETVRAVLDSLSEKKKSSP
Text: as §1
as §2, with “subunit. The N-terminal subunit recognizes the reverse complement of the AG portion of the four base pair center sequence, which is CT, and the C-terminal subunit recognizes the GC portion of the […] center sequence.” for “subunit.”, “TTGG” for “TCAA”, “248)” for “331)”, “1. The substitutions in each subunit are provided in Tables 177 and 178, respectively.” for “1.”

LOX 3-4m.2045 = biological target: T10, LOX 3-4m.2045 (artificial (I-CreI derived))
T10 chain: T9 chain with K239S, C241R, H257Y, K262G, K263R, H276R, K330R
Text: as §1
as §2, with “subunit. The N-terminal subunit recognizes the reverse complement of the AG portion of the four base pair center sequence, which is CT, and the C-terminal subunit recognizes the GC portion of the […] center sequence.” for “subunit.”, “TTGG” for “TCAA”, “248)” for “331)”, “1. The substitutions in each subunit are provided in Tables 177 and 178, respectively.” for “1.”

LOX 3-4m.1970 = biological target: T11, LOX 3-4m.1970 (artificial (I-CreI derived))
T11 chain: T9 chain with H257Y, K262G, K263Q, K330R
Text: as §1
as §2, with “subunit. The N-terminal subunit recognizes the reverse complement of the AG portion of the four base pair center sequence, which is CT, and the C-terminal subunit recognizes the GC portion of the […] center sequence.” for “subunit.”, “TTGG” for “TCAA”, “248)” for “331)”, “1. The substitutions in each subunit are provided in Tables 177 and 178, respectively.” for “1.”

LOX 3-4m.1981 = biological target: T12, LOX 3-4m.1981 (artificial (I-CreI derived))
T12 chain: T9 chain with K239S, C241R, H257Y, K262G, K263S, I264V, K330R
Text: as §1
as §2, with “subunit. The N-terminal subunit recognizes the reverse complement of the AG portion of the four base pair center sequence, which is CT, and the C-terminal subunit recognizes the GC portion of the […] center sequence.” for “subunit.”, “TTGG” for “TCAA”, “248)” for “331)”, “1. The substitutions in each subunit are provided in Tables 177 and 178, respectively.” for “1.”

B1: LOX 3-4 TCAA (dsDNA)
DNA 1: GTATAGCATTCAATATACGAAG
DNA 2: CTTCGTATATTGAATGCTATAC
activity (LOX 3-4m.2229): 11.8 % GFP
activity (LOX 3-4m.2157): 9.79 % GFP
activity (LOX 3-4m.2165): 10.3 % GFP
activity (LOX 3-4m.2189): 11.7 % GFP

B2: LOX 3-4 TTAA (dsDNA)
DNA 1: GTATAGCATTTAATATACGAAG
DNA 2: CTTCGTATATTAAATGCTATAC
activity (LOX 3-4m.2151): 13 % GFP
activity (LOX 3-4m.2142): 13.9 % GFP
activity (LOX 3-4m.2145): 12.9 % GFP
activity (LOX 3-4m.2125): 12.7 % GFP

B3: LOX 3-4 TTGG (dsDNA)
DNA 1: GTATAGCATTTGGTATACGAAG
DNA 2: CTTCGTATACCAAATGCTATAC
activity (LOX 3-4m.1973): 14.3 % GFP
activity (LOX 3-4m.2045): 14.2 % GFP
activity (LOX 3-4m.1970): 13.5 % GFP
activity (LOX 3-4m.1981): 13.5 % GFP
